Source: the DeepSol protein solubility set

Experiment: soluble on expression in E. coli; label from the status in PepcDB or PDB records

Row | Sequence | soluble on expression in E. coli
1 | HHHHHHYMEQEEDWDRDLLLDPAWEKQQRKTFTAWCNSHLRKAGTQIENIEEDFRNGLKLMLLLEVISGERLPRPDKGKMRFHKIANVNKALDFIASKGVKLVSIGAEEIVDGNLKMTLGMIWTIILRFAIQDISVEETSAKEGLLLWCQRKTAPYRNVNVQNFHTSWKDGLALCALIHRHRPDLIDYAKLRKDDPIGNLNTAFEVAEKYLDIPKMLDAEDIVNTPKPDEKAIMTYVSCFYHAFAGAEQAETAA | soluble
2 | MSLSGKDLGRAIEQAINKKIASGSVKSKAEVARHFKVQPPSIYDWIKKGSISKDKLPELWRFFSDVVGPEHWGLNEYPIPTPTNSDTKSELLDINNLYQAASDEIRAIVAFLLSGNATEPDWVDHDVRAYIAAMEMKVGKYLKALESERKSQNITKTGTEGHHHHHH | soluble
3 | AHHHHHHGSILKMLESRGITLERMVETALELYIGEKRDAIKEKVRELMLHYLEDINVQALLMAALMLEEKFNVEGDPVNLVADELIGIDIAEYIGGKMALFNFFYYDTKKPGILRELPPFLDDAIGGFIAGCMTLLFHIPQKNSNGGNL | soluble
4 | RSTIGAGQKVNVEFVSANPTGPMHVGHVRGAVVGDALARLLAYAGWNVTREYYINDGGAQVDVLARSAFERYREAHGLEPEIREGLYPGDYLIPVGEALKAKYGDSLLDKGEQHWLTEVREFATEMMMQMIREDLAALGVEMDVYSSEKALYGTGKIEAALDRLKEMDLIYEGVLEPPKGKTPEDWEPREQTLFRSTAHGDDVDRPVKKSDGSWTYFAPDIAYHYDKVTRGFDQLIDIFGADHGGYVKRMKAAVAALSAGRVPLDIKLIQLVKLWKNGEPFKMSKRAGTYVTLRDVVEQVGTDVTRFVMLTRKNDATLDFDFDKVLEQSKENPVFYVQYANARINSVLRKAREQGMDVSDA | not soluble
5 | ITDHNTLSGVSKMVEACKINKRFLNNKCPQILAGIEISCSDKHHVVVILNNKDMDMMQKAEDWLTNYIISDDGTYLPSLLVIEAFVEIGAIAYIAHFNTSDLFKKPKFLSGLYIDKLFSTKKMEIIGLSNMDSKLAIEEKLSNYTKRKFHFILDEDSHTLEELCTKPFWIK | not soluble
6 | GGRALRVLVDMDGVLADFEGGFLRKFRARFPDQPFIALEDRRGFWVSEQYGRLRPGLSEKAISIWESKNFFFELEPLPGAVEAVKEMASLQNTDVFICTSPIKMFKYCPYEKYAWVEKYFGPDFLEQIVLTRDKTVVSADLLIDDRPDITGAEPTPSWEHVLFTACHNQHLQLQPPRRRLHSWADDWKAILDSKRPC | soluble
7 | MGSDKIHHHHHHMMRVFHLVLAPRLSGAEVLAKDLALDQCAEGMAVCVASLLPAHAEFAPLQDDLQRHGVQCVFPRRRHRALVKLCHLFGAVRRFRPDVIFAHATIPSFYARALPLRVPVVYVMHSATNDFERPLFRRIEHILSGRARVVIGVSEQGVTDYVQAIGPHPSMTVVPNGVDLARFSFTDGVERDGRTPQVVQIGRYAAVKNQLATVRAFSEVLMKGKDARLVLYGVVEDPDYQRAVVALAKELGIAERVVVAGPRTDVATVLSESNVFVMPSQSEAHSVAFLEALASGVPIVASKIPAFAFANGFPGVQLIDTDNVQCYAEAVIAALGQERAQRSLTGLTLRDTADRYRAIARQVSLAVPAR | not soluble
8 | MGSDKIHHHHHHMVRQFLPLNGLRAFEASARHLSFTRAAIELCVTQAAVSQQVKGLEKRLGVALFQRLPRGLKITAEGEALLPTVTSSFDQMATTLDRIEAGQVRELLFLGVVGTFAVGWLLPRLAAFQKRHPFIDVRVSTNNNRVDMAAEGLDFAIRFGQGSWHGTDAFRLFEAPLSPLCTPKLAEMLKEPADLMDATLLRSYRADEWSTWFAAAGVSPAAQVNAGIVFDTSLGMMEAALQGLGVALAPPSMFSRHLTSGAVMQPFPVTISLGSYWLTRLQSKPQTSAMQAFSDWLLETIGTA | not soluble
9 | SNAMSKDSESNLAQRQSQPKAHADLRINSHWIIPIENTTDHNLVSNILIDHCLLIKDGIILAIEPQSSCQIPATETLDLGQQVLMPGWVNAHGHAAMSLFRGLADDLPLMTWLQEHVWPAEAQHVDEHFVKQGTELAIAEMIQSGTTTFADMYFYPQQSGEAALAAGIRAVCFAPVLDFPTNYAQNADEYIRKAIECNDRFNNHPMNEQGLVQIGFGPHAPYTVSDEPLKEITMLSDQLDMPVQIHLHETDFEVSESLETFNKRPTQRLADIGFLNERVSCVHMTQVDDGDIKILQKTGASIIHCPESNLKLASGFCPIAKLSAANIPLAIGTDGAASNNDLDMFSETKTAALLAKGVSQDASAIPAIEALTMATLGGARALGIDDITGSLKPGKAADIQAIDLNTLSSQPVFDPVSHMVYCTKSTQVSHVWVNGRCLLKNGELTTLNEETLINHAKAWASAIRTPIK | soluble
10 | MRHHTIHPQLEQVFSAPYLRQLQKVTFQKGNYIGTQGQDITELTYILSGRVKIVRSLSNGKEHILQMPQQPQLLGDVELMTNQLAGSSVIALEEVQAAQLPLNNKEALLKDPIFLYHIGRNLAMALHRQGITASTNASYFVKERLATHILNIEEQDIFQLSPSILSSSFGTSYRHVQRVIKQFIDQGIIEKKAFKTYRILQRDSLETLAFID | not soluble
11 | MPQTERQLRVWIEGATGRRIGDNFMDGLKDGVILCELINKLQPGSVQKVNDPVQNWHKLENIGNFLRAIKHYGVKPHDIFEANDLFENTNHTQVQSTLIALASQAKTK | soluble
12 | MGSDKIHHHHHHMMDLEGYVRRCLRKKIPENKIIEDGFKRILEIKEDVDEEFAKKFIKAILEEVKTTEKFREIDDENLKTLLKYPKSGVTMGRMGVGSRGEGDFFVHREIARIVKSTKVKAYVSAEEQDDAGIVRADAKYIVAAIDGTHSRLSDFPFLGGFHVTRAALRDIYVMGAEAVALISDVHLADDGDVGKIFDFTAGICAVSEAVNVPLIGGSTLRVGGDMVIGDRLVSAVGAIGVIKEGEPTARRNAEVGDVILMTEGSGGGTITTTALYYGWFDVIYETLNVDFIKACQNLIRSGLIKKIHAMTDVTNGGLRGDAYEISKTAKVSLIFDKEKVYKTINPKVLEMLEVLNIDPLGVSTDSLMIICPEEYADDIKKVTGAIEVGYVEEGEESYLVDGNKKIPLKPMFRESAYTPVKKVVGERKPGDFEEMKEKVRRACDEAIKKKDFVVELLKERKKKF | not soluble
13 | MPRYPFRRFGFGALRRLLYLWVRSETINQSAFTLKIDRSKPVLYVLQQPSVSDLAVVDTECRKAGLPRPVMPVAVGDAIEPAAFFYLTPEPDWLGRQDKRGASPTLVRMLAAVGQNGLDDAQIIPVSVFWGQSPDSESSPWKLLFADNWAVTGRLRKLARILILGRKTRVQFSAPIHLRELVEQGKGHERTLRMVNRILRVHFRNLKTAVIGPDLSHRRNLVKGLLRAPLVRQAISEECESERISQEKAEGIALRYANEIASDFSYPVIRFLEVILSWFWNKLYEGVKVNHIERVQDVAQGNEIVYVPCHRSHIDYLLLSYLLFRNGLTPPHIAAGINLNMPVIGSILRRGGAFFMRRSFKGNQLYTAVFNEYLHTLFSRGFSTEYFVEGGRSRTGRMLHPRTGMLAITLRSFLRDSRRPIVFVPVYIGYERVLEGRTYLGELRGATKKKESIFDLFKVVGALKQRFGQVWVNFGEPIHLDQFLDRHQPDWQDQDLGPEYRPDWLPQTTNLLAKDVARHLNDAAAINPVNLVALALLSTSRQALDESALARILDLYLALLRKVPYSPSATLPDGDGQALIEYVKSMNLLAEQKDALGRILYLDEQNAVLATYYRNNVLHVFALPALIASFFQSNSRISREQLLRFARALYPYLQAELFIRWSLDELDAVIDQWLAALVEQDLLRQENDTFIRPAPSSRQYVLLILLARSVTQTLQRFYMAIALLLNAGQNALTAEELENLCTVMAQRLSILHGLNAPEFFDKSLFRHFIQTLLDLRVLRKDEAGKLSYHELLGELAEGAAKRVLPAEIRLSIRQVALERPAEEAAAESN | not soluble
14 | MGSDKIHHHHHHMWDRGLHSYRMVHATLKCGCHYLGRVPKNVKFPVDKVLDDGSYLSWIAPDRKSKHKGGTRIQVRVIEYTIDSENGQQTYRLIPSLMDIALFPALLLATEYHQRWEIENTIDELKTHLNGRKTPIRSLKPREVVQEIYGWLLSHYAVRTLMFQAATAASISPLRLGFTGTLKVIRRAIADFQDANSEQLPFFLQANSGDFGAKNPYRRYIAALTQQRDFNLLILQNRLDHRFTNGCIPVFIIPKQINNREGLLQKTEVRK | not soluble
15 | MVFGPGLCIAHRGTIVVNKGARVGENCRIHACTNIGSGRDNIFLAPKIGNGVYIGPGAKIFGSVEIADNIAIGANSVVNRSFYERGISIAGVPAKKISNKGSDGMVIAATKTVSVPVSQETILEHHHHHH | not soluble
16 | MTGVDPTIVKIHEIQGTGTASPLVNNVVTIEAIVVGDFQDGDGDISRNLRGFYVQEEDADVDGNVATSEGIFIFENGNFITDVNVGDKVQITGTVDEFFGETQIDTITNITVISSGNTLPTAANITLPTAGTTESQGGTPQPDLEAFEGMLVKFTDTLTITEMFNLDRFNEIKLSQGGRPQQFTQFNDANVAGYGAYREEIGARTITYDDGLSVQNAEISNLDGFGSSFSTASDIRMGDTINNLTGVLSYQWAGNASSGATWRVRSAVDGTNQFTKVNDRPVTPENVGGSLKVTGFNVLLEHHHHHH | soluble
17 | MGSDKIHHHHHHMTHQNSPLFLKSALRLYNRASFKASHKVIEEYSTSFSLSTWLLSPRIRNDIRNLYAVVRIADEIVDGTAHAAGCSTAKIEEILDAYEIAVLAAPQQRFNTDLVLQAYGETARRCDFEQEHVIAFFASMRKDLKANTHDPDSFTTYVYGSAEVIGLLCLSVFNQGRTISKKRLEIMQNGARSLGAAFQKINFLRDLAEDQQNLGRFYFPKTSQGTLTKEQKEDLIADIRQDLAIAHDAFPEIPVQARIGVISAYLLFQKLTDRIEATPTADLLRERIRVPLHIKLSTLARATMKGLSMSIYRKNS | not soluble
18 | MTTETQADRTQQAVGRIIGSIGVVTTQTTGRHQGILTSWVSQASFTPPGIMLAIPGEFDAYGLAGQNKAFVLNLLQEGRSVRRHFDHQPLPKDGDNPFSRLEHYSTQNGCLILAEALAYLECLVQSWSNIGDHVLVYATVQAGQVLQPNGITLEHHHHHH | soluble
19 | MGSDKIHHHHHHMYNEGVTSPSQLARKKNATDKWHGSSIRKILENPHYTGTLQQCREYRPSVTSKRRRSVNLENQIIIEKSHEPIIPLEDFLIVQEILITRKRRRPQAEVHLFTNTAVCKDCRRSMHFKKNRKGYVCGSYNKHGLKACSDHYVSEIDLTDKVITNLNKIYLKFSKENYFKELSEKALKYKEKIESKIIEINEKLNDKKRDKSNLVISLANGVISKEDYQLAINITNEDISNFETTLHQLSKDLEFQKIEKEIIDFKKSLDKFMKEGTLTPEMLHLLVDEIEVHANGTIEINYRFREPTVPSA | not soluble
20 | MQLTESLGIVLFNRNYREDDKLVKIFTEVAGKQMFFVKHISRSKMSSIIQPLTIADFIFKLNDTGLSYVVDYSNVNTYRYINNDIFRLAYASYVLALADAAIADNESDSHLFTFLKKTLDLMEEGLDYEILTNIFEIQILDRFGISLNFHECAICHRTDLPLDFSHRFSAVLCSEHYYKDNRRNHLDPNVIYLLSRFQKITFDDLRTISLNKDIKKKLRQFIDELYHDYVGIKLKSKTFIDNLVKWGDIMK | not soluble
21 | MSLRPTPAPSFSGVTVDGKPFSSASLKGKAYIVNFFATWCPPCRSEIPDMVQVQKTWASRGFTFVGIAVNEQLPNVKNYMKTQGIIYPVMMATPELIRAFNGYIDGGITGIPTSFVIDASGNVSGVIVGPRSKADFDRIVKMALGAKAATKKGIITITTDPNSSSVDKLAAALEHHHHHH | soluble
